Results as given in article PMC8238508, “Protein-based condensation mechanisms drive the assembly of RNA-rich P granules”.

Legend:
[1] = target: T1, MEG-3 (wild type) (Caenorhabditis elegans, UniProt Q9TXM1 1-862); assay: filter binding; mean and SD computed from four replicate fits: 809.8, 808.8, 661.5, 695.9; Hill model; 50 nM RNA; 3.75 mM HEPES (stock pH 7.4), 150 mM NaCl, 0.9 mM beta-mercaptoethanol, 1.5% glycerol, 10 mM Tris HCl; 30 min, room temperature; nitrocellulose/Hybond-N+ dot blot; conditions: protein: recombinant; tags: N-terminal 6xHis (pET28a); label: 3' fluorescein
T1 sequence: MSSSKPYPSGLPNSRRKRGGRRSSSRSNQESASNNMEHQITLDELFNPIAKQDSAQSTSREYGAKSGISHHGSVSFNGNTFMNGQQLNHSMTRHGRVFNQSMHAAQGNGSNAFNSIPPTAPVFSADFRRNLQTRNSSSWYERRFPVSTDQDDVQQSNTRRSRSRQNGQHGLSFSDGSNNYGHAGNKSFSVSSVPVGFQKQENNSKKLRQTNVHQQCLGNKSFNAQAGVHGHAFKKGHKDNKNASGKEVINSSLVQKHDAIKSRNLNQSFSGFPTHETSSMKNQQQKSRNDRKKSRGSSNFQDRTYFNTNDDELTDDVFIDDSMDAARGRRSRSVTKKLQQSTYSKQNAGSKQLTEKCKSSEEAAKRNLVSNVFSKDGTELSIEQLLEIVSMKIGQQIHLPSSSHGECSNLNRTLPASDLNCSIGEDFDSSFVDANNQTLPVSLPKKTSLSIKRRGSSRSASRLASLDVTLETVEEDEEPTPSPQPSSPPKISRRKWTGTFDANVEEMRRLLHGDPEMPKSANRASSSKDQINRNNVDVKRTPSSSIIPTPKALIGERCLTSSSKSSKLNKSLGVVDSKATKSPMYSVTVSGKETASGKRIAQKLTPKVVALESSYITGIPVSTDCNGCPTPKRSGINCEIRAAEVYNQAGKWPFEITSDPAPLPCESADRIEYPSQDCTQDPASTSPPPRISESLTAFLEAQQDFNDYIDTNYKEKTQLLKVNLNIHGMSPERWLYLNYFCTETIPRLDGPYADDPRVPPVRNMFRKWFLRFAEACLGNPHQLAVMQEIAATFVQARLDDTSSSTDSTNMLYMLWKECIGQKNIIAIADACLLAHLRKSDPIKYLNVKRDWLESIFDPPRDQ

[2] = target: T2, MEG-3 IDR (Caenorhabditis elegans, UniProt Q9TXM1 1-544); assay: filter binding; mean and SD computed from four replicate fits: 109.3, 83.64, 103.3, 107.9; Hill model; curve assigned by legend order; 50 nM RNA; 3.75 mM HEPES (stock pH 7.4), 150 mM NaCl, 0.9 mM beta-mercaptoethanol, 1.5% glycerol, 10 mM Tris HCl; 30 min, room temperature; nitrocellulose/Hybond-N+ dot blot; conditions: protein: recombinant; tags: N-terminal 6xHis (pET28a); label: 3' fluorescein
T2 sequence: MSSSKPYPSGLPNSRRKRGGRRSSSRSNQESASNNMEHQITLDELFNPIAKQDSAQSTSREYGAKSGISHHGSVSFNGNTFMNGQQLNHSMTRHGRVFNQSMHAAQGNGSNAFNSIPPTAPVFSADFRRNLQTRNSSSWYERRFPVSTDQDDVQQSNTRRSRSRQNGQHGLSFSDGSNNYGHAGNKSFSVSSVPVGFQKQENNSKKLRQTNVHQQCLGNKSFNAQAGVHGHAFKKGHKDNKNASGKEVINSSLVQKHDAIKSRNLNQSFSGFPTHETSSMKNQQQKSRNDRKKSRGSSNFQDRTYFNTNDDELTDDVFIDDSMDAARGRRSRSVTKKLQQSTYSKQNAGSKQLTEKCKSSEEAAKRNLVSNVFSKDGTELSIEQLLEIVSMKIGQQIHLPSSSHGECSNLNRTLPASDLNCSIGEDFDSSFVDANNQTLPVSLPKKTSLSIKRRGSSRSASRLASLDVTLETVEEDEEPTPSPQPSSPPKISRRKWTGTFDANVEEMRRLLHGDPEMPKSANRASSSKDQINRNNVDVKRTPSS

B1: poly-U(30) (30U) (ssRNA)
RNA: UUUUUUUUUUUUUUUUUUUUUUUUUUUUUU
[1]
  Kd: 744 ± 77 nM
[2]
  Kd: 101 ± 12 nM
